The values below come from patent US20160090402A1.

Assay [1] deals with hASCT1 receptor (human) (UniProt P43007). The experiment in a line: soluble Env injected into SCID mice grafted with XChASCT1 cells; cells recovered, anti-RGS-His immunofluorescence.
Assay [2] deals with hASCT2 receptor (human type 2 sodium-dependent neutral amino acid transporter) (human) (UniProt Q15758). The experiment in a line: soluble Env injected into SCID mice grafted with XChASCT2 cells; cells recovered, anti-RGS-His immunofluorescence.
Chain of hASCT2 receptor (human type 2 sodium-dependent neutral amino acid transporter) (human) (Q15758 whole entry): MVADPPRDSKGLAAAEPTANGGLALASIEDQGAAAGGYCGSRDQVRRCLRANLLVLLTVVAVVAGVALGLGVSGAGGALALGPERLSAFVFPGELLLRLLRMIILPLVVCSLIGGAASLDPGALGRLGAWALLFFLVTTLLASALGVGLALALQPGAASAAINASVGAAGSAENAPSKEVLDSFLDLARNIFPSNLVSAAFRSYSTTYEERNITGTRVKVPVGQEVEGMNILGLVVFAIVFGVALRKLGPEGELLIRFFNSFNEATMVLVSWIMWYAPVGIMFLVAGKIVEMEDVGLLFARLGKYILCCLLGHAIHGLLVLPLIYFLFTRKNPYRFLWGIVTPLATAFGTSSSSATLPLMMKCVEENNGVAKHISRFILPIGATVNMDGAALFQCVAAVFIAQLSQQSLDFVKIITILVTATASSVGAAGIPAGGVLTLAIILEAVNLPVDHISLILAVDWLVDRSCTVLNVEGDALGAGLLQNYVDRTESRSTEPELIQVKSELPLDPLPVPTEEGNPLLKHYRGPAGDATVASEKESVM

Chain of hASCT1 receptor (human) (P43007 whole entry): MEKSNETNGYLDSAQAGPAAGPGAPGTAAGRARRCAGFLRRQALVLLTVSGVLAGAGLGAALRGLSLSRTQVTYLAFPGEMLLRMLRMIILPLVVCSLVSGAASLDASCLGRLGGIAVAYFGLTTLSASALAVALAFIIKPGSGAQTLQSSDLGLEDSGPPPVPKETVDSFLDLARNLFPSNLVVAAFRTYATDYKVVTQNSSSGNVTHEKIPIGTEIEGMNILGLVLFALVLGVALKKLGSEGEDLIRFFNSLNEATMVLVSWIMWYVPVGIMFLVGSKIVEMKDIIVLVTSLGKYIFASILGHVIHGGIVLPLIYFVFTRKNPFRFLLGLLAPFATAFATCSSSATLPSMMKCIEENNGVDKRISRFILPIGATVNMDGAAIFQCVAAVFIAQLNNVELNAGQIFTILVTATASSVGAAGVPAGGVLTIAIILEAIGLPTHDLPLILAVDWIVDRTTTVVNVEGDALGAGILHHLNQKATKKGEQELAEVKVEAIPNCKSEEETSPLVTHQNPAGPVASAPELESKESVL

In assay [1], “soluble protein of plasmid 460 (envelope-spacer-His6) (from UniProt Q9UQF0 21-435) (ligand)” had an NF/NT, Mean (fluorescent cells of 77 cells) of 24. This substance had an NF/NT, Mean (fluorescent cells of 57 cells) in assay [2] of 23.
